Experiment: yeast display, Sf9 membrane polyspecificity reagent, FACS + sequencing; frameworks hold sequencing errors
Summary of the method: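 Galactose induction of a Saccharomyces cerevisiae BJ5465 synthetic nanobody display library ran 36–48 hours. The cells were then stained for 1 hour at 4 °C with 10% biotinylated, detergent-solubilized Sf9 membrane reagent, pulled down on streptavidin microbeads and FACS-sorted into low and high (top ~1%) gates on expression and reagent-binding fluorescence. Labels for polyreactivity follow the gate of origin.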

Row | Sequence | polyreactivity (PSR sort gate)
1 | QVQLVESGGGLVQAGGRLRLSCAASGSIFSRNAMGWDRQAPGQERELVAAITRSGGRTYYADSVKGRCTLSRDNAKTTVYLQMNSLKPEDTAVYYCNALASQEYDYWGQGTQVTVSS | high polyreactivity
2 | QVQLVESGGGLVQAGGSLRLSCAASGSIFNRYTMGWYRQAPGKERELVAAISKRGGSTYYADSVKGRFTISRDNAKNTVYLQMNSLKPEDSAVYYCAAAAYHSGNGGGYWGQGTQVSVSS | high polyreactivity
3 | QVQLVESGGGLVQAGGSLRLSCAASGSIFRGYAMGWYRQAPGKERELVATIDSSAGSTYYADSVKGRFTISRDNAKNTVYLQMNSLIPEDTAVYYCATDPYGYYYSGFDNWGQGTQVTVSS | low polyreactivity
4 | QVQLVESGGGLVQAGGSLRLTCAASGSIFNGNAMGWYRQAPGKERELVAAISNVGRTDYADSVKGRFTISRDNAKNTVYLQMNSLKPEDTAVYYCAAGVYSGYNRYFAPRSWFGYYYWGQGTQVTVSS | low polyreactivity
5 | QVQLVESGGGLVQAGGSLRLSCAASGFIFLFYAMGWYRQAPGKERELVAAISSGVSTNYADSVKGRFTISRDNAKNTVYLQMNSLKPEDTAVYYCNTTQSTSLLYDYWGQGTQVTVSS | low polyreactivity
6 | QVQLVESGGGLVQAGGSLRLSCAASGSTFEQNAMGWYRQAPGKEREFVAAITGSGGSTYYADSVKGRFTISRDNAKNTVYLQMNSLKPEDTAVYYCAADIQDGLYWWDIYDYWGQGTQVTVSS | low polyreactivity
7 | QVQLVESGGGLVQAGGSLRLSCAASGRTFIKNAMGWYRQAPGKERELVAAINWSGTRTYYADSVKGRFTISRDNAKNTVYLQMNSLKPEDTAVYYCAKVIARYVRYDYWGQGTQVTVSS | high polyreactivity
8 | QVQLVESGGGLVQAGGSLRLSCAASGIIFGEYAMGWYRQAPGKERELVAAISQSGGTYYADSVKGRFTISRDNAKNTVYLQMNSLKPEDTAVYYCNADYWAYISRVRYDYWGQGTQVTVSS | low polyreactivity
9 | QVQLVESGGGLVQAGGSLRLSCAASGRILDGYAMGWYRQAPGKERELVAAISSRGGRTYYADSVKGRFTISRDNAKNTVYLQMNSLKPEDTAVYYCAADFSKSRRPIRFYYWGQGTQVTVSS | high polyreactivity
10 | QVQLVESGGGLVQAGGSLRLSCAASGSIFGYAMGWYRQAPGKARELVAAISFSGVSTYYADSVKGRFTITRDNAKNTVYLQMNSLKPEDTAGYYCNAYSDGDEDYWGQGTQVNVSS | low polyreactivity
11 | QVQLVESGGGLVQAGGSLRLICDASGRTFVRYAMGWYRQAPGKERELVAAITRSASTYYADSVKGRFTISRDNAKNTVYLQMNSLKPEDTAVYYCNAGRKYWFGRAGGYDYWGQGTQVTVSS | high polyreactivity
12 | QVQLVESGGGLAQAGGSLRLSCAASGNIFRINGMGWYRQAPGKERELVASITRSGSTYYADSVKGRFTISRDNAKNTVYLQMNSLKPEDTAVYFCAADSRRYGVRFDYWGQGTQVTVSS | low polyreactivity
13 | QVQLVESGGGLVQAGGSLRLSCAATGSTYPRNDRGWYRQAPGKERELVAAISRGGSTNYADSVKGRFTISRDNAKNTVYLQMNSLKPEDTAVYFCAAQIFESAYGMDYWGQGTQVTVSS | low polyreactivity
14 | QVQLVESGGGLVQAGGSLRLSCAASGLTFELYAMGWYRQAPGKERELVAAITWSGGRTYYADSVKGRFTISRDNAKNTVYLQMNSLKPEDTAVYYCAADVYPGYVGSQEYDYWGQGTQVTVSS | low polyreactivity
15 | QVQLVESAGGLVQAGASLRLSCDASGRIFPSNAMGWSRQAPGKERELVAAITSSGGSTYYADSVKGRFTISRDYAKNTVYLQMNSLKPEHTAVYYCPARFYSGPGGYTIYYWGQGTQVTVSS | high polyreactivity
16 | QVQLVESGGGLVQAGGSLRLSCAASGRTFAGNAMGWYRQAPGKERELVAAIRRTGGRTYYADSVKGRFTISRDNAKNTVYLQMNSLKPEDTAVYYCNAVNKPYTREYGYDYWGQGTQVTVSS | high polyreactivity
17 | QVQLVESGGGLVQAGGSLRLSCAASGRTFDVNAMGWYRQAPGKERELVAAIRISGGSTYYADSVKGRFTISRDNAKITVYLQMNSLKPEDTAVYYCAAYERRYRNAYDYWGQGTQVTVSS | high polyreactivity
